The values that follow come from article PMC3005887 (Research letters in biochemistry, 2009).

Assay [1] concerns the target T1, 6Hishub/6HisLCb (clathrin hub with bound clathrin light chain b) (bovine, UniProt P49951 1074-1675; P04975 1-228).
T1 sequence (looked up) 1: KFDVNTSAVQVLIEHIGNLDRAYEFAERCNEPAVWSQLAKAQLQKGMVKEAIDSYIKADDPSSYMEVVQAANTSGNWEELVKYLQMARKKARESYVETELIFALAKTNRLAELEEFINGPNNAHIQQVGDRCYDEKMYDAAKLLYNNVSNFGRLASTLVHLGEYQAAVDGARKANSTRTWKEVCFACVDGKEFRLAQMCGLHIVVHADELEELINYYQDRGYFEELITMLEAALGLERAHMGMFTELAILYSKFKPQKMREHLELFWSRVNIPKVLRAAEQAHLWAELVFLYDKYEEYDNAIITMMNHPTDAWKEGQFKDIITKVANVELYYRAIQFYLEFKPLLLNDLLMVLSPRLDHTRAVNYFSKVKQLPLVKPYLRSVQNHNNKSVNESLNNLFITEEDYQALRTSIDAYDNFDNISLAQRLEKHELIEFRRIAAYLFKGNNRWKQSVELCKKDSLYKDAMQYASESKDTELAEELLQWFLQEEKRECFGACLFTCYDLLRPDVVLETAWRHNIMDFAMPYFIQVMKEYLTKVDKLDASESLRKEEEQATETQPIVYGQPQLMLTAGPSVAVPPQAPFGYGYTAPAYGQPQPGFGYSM
T1 sequence (looked up) 2: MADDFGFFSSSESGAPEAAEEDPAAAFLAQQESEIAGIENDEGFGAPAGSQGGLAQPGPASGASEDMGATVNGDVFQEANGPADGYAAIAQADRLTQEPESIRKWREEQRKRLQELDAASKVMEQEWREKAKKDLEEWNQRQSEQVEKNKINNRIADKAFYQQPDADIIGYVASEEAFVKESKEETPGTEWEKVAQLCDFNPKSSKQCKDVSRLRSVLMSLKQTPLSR
Description: pull-down; GST or GST-HIP1h on glutathione Sepharose 4B beads; 6HisLCb and hub premixed 3:1 at 4 C for at least 30 min; 0.4 nmol hub alone or 1.9 nmol hub/6HisLCb complex; binding buffer 50 mM Tris, 200 mM KCl, 1 mM EDTA, 1% Triton X-100, 50 mM imidazole, 0.5 mg/ml ovalbumin, pH 8.0; 4 C, 1 hour; Western blot (anti-His, CON.1, anti-GST). Particulars: both partners purified.

The target of assay [2] is T2, 6Hishub alone (clathrin hub, bovine clathrin heavy chain aa1074-1675, no bound LCb) (bovine, UniProt P49951 1074-1675).
T2 sequence (looked up): T1 sequence (looked up) 1
The description is as above. To be noted: both partners purified.

Positions count from the first letter of the chain named. Names and notes keep the numbering of the source.

B1: GST-HIP1h (Huntingtin-interacting protein 1, aa370-644), wild type (domain or fragment, human, UniProt O00291-1 370-644, looked up)
chain: KDEKDHLIERLYREISGLKAQLENMKTESQRVVLQLKGHVSELEADLAEQQHLRQQAADDCEFLRAELDELRRQREDTEKAQRSLSEIERKAQANEQRYSKLKEKYSELVQNHADLLRKNAEVTKQVSMARQAQVDLEREKKELEDSLERISDQGQRKTQEQLEVLESLKQELATSQRELQVLQGSLETSAQSEANWAAEFAELEKERDSLVSGAAHREEELSALRKELQDTQLKLASTEESMCQLAKDQRKMLLVGSRKAAEQVIQDALNQLEE
For the molecule B1, the binding result in assay [1] was “binds”.

B2: GST-HIP1h (aa370-644) K511E (domain or fragment, human, UniProt O00291-1 370-644, looked up)
chain: B1 chain with K142E
Turning to B2, the binding result in assay [1] is listed as “binds”.

B3: GST-HIP1h (aa370-644) R508E (domain or fragment, human, UniProt O00291-1 370-644, looked up)
chain: B1 chain with R139E
Turning to B3, in assay [1], the binding result was “binds”.

B4: GST-HIP1h (aa370-644) R500E (domain or fragment, human, UniProt O00291-1 370-644, looked up)
chain: B1 chain with R131E
Turning to B4, the binding result in assay [1] was “binds”.

B5: 6HisLCb (N-terminally histidine-tagged bovine clathrin light chain b with the neuronal insert) (natural protein, UniProt P04975 1-228, looked up)
chain: T1 sequence (looked up) 2
As to B5, the binding result in assay [2] was “binds”.
